Values quoted from earlier work, collected in paper PMC2957019 (Journal of labelled compounds & radiopharmaceuticals, 2009).
Where no end group is shown, it is not given here.

Details: incubation in serum

With “^125I-FROP-1: 12-amino acid synthetic peptide radiolabeled with iodine (EDYELMDLLAYL), selected by phage display for targeting thyroid carcinoma cells (also: 125I radiolabel)” as the substance, how does the “time to degradation in serum” value read?
The value was ≤ 30 min.
